Series [1] has as its system HeLa Kyoto. Description: melting temperature (median over replicates), in situ; higher = more thermally stable.
In series [2] the test system is HeLa Kyoto. Description: solubility change mitosis vs G1/S (difference of NP-40 vs SDS log2 ratios) (log2 ratio difference); higher = more soluble in mitosis.
Series [3] has as its system HeLa Kyoto. Description: solubility in G1/S (NP-40 vs SDS abundance) (log2 ratio); higher = more soluble. The note with it: cell cycle stage: G1/S.
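Wherever melting temperature (median over replicates), in situ is given: HeLa Kyoto cells synchronized by double thymidine or nocodazole block, proteins quantified by TMT10plex mass spectrometry, three independent biological replicates.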
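Wherever solubility change mitosis vs G1/S (difference of NP-40 vs SDS log2 ratios) is given: synchronized HeLa Kyoto cells (double thymidine block for G1/S, nocodazole release for mitosis), protein amounts in NP-40 versus SDS lysates quantified by mass spectrometry, three biological replicates.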
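Wherever solubility in G1/S (NP-40 vs SDS abundance) is given: HeLa Kyoto cells arrested at G1/S by double thymidine block, proteins quantified by TMT10plex mass spectrometry in mild NP-40 versus SDS extracts, three biological replicates.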

With “MAQEFVNCKIQPGKVVVFIKPTCPYCRRAQEILSQLPIKQGLLEFVDITATNHTNEIQDYLQQLTGARTVPRVFIGKDCIGGCSDLVSLQQSGELLTRLKQIGALQ [GLRX]”, the figures for the melting temperature in series [1] (cell cycle stage: G1/S) and in series [1] (cell cycle stage: mitosis) were 54.7 °C and 53.4 °C, respectively. In addition, the “solubility change mitosis (log2)” value in series [2] stood at 0.0467. Further, the “solubility in G1/S (log2)” value in series [3] was 0.253.
Taken in the same sequence, the figures for “MAQRLLLRRFLASVISRKPSQGQWPPLTSRALQTPQCSPGGLTVTPNPARTIYTTRISLTTFNIQDGPDFQDRVVNSETPVVVDFHAQWCGPCKILGPRLEKMVAKQHGKVVMAKVDIDDHTDLAIEYEVSAVPTVLAMKNGDVVDKFVGIKDEDQLEAFLKKLIG [TXN2]” were 53.5 °C, 52.9 °C, 0.017 and 0.576.
“MAQSINITELNLPQLEMLKNQLDQEVEFLSTSIAQLKVVQTKYVEAKDCLNVLNKSNEGKELLVPLTSSMYVPGKLHDVEHVLIDVGTGYYVEKTAEDAKDFFKRKIDFLTKQMEKIQPALQEKHAMKQAVMEMMSQKIQQLTALGAAQATAKA [PFDN5]”: the melting temperature in series [1] (cell cycle stage: G1/S) worked out at 54.4 °C; in series [1] (cell cycle stage: mitosis) it was 53.1 °C. In addition, the “solubility change mitosis (log2)” value in series [2] came out at 0.784. For the same sequence, the “solubility in G1/S (log2)” value in series [3] is -0.425.
Taken in the same sequence, the figures for “MARDLIGPALPPGFKARGTAEDEERDPSPVAGPALPPNYKSSSSDSSDSDEDSSSLYEEGNQESEEDDSGPTARKQRKNQDDDDDDDDGFFGPALPPGFKKQDDSPPRPIIGPALPPGFIKSTQKSDKGRDDPGQQETDSSEDEDIIGPMPAKGPVNYNVTTEFEKRAQRMKEKLTKGDDDSSKPIVRESWMTELPPEMKDFGLGPRTFKRRADDTSGDRSIWTDTPADRERKAKETQEARKSSSKKDEEHILSGRDKRLAEQVSSYNESKRSESLMDIHHKKLKSKAAEDKNKPQERIPFDRDKDLKVNRFDEAQKKALIKKSRELNTRFSHGKGNMFL [GPALPP1]” were 55.1 °C, 56.1 °C, 0.245 and 0.0784.
Taken in the same sequence, the figures for “MASPAASSVRPPRPKKEPQTLVIPKNAAEEQKLKLERLMKNPDKAVPIPEKMSEWAPRPPPEFVRDVMGSSAGAGSGEFHVYRHLRRREYQRQDYMDAMAEKQKLDAEFQKRLEKNKIAAEEQTAKRRKKRQKLKEKKLLAKKMKLEQKKQEGPGQPKEQGSSSSAEASGTEEEEEVPSFTMGR [PRKRIP1]” were 53.3 °C, 53.6 °C, 0.169 and 0.499.
Taken in the same sequence, the figures for “MASQGRRRRPLRRPETVVPGEATETDSERSASSSEEEELYLGPSGPTRGRPTGLRVAGEAAETDSEPEPEPEPTAAPRDLPPLVVQRESAEEAWGTEEAPAPAPARSLLQLRLAESQARLDHDVAAAVSGVYRRAGRDVAALASRLAAAQAAGLAAAHSVRLARGDLCALAERLDIVAGCRLLPDIRGVPGTEPEKDPGPRA [BLOC1S3]” were 52.6 °C, 54.9 °C, 0.0331 and 0.568.
As to “MASSAASSEHFEKLHEIFRGLHEDLQGVPERLLGTAGTEEKKKLIRDFDEKQQEANETLAEMEEELRYAPLSFRNPMMSKLRNYRKDLAKLHREVRSTPLTATPGGRGDMKYGIYAVENEHMNRLQSQRAMLLQGTESLNRATQSIERSHRIATETDQIGSEIIEELGEQRDQLERTKSRLVNTSENLSKSRKILRSMSRKVTTNKLLLSIIILLELAILGGLVYYKFFRSH [VTI1B]”, the melting temperature was 53.5 °C in series [1] (cell cycle stage: G1/S) and 52.5 °C in series [1] (cell cycle stage: mitosis). Further, the “solubility change mitosis (log2)” value in series [2] was 0.188. Moreover, the “solubility in G1/S (log2)” value in series [3] amounted to 0.392.
As to “MASSASARTPAGKRVINQEELRRLMKEKQRLSTSRKRIESPFAKYNRLGQLSCALCNTPVKSELLWQTHVLGKQHREKVAELKGAKEASQGSSASSAPHSVKRKAPDADDQDVKRAKATLVPQVQPSTSAWTTNFDKIGKEFIRATPSKPSGLSLLPDYEDEEEEEEEEEGDGERKRGDASKPLSDAQGKEHSVSSSREVTSSVLPNDFFSTNPPKAPIIPHSGSIEKAEIHEKVVERRENTAEALPEGFFDDPEVDARVRKVDAPKDQMDKEWDEFQKAMRQVNTISEAIVAEEDEEGRLDRQIGEIDEQIECYRRVEKLRNRQDEIKNKLKEILTIKELQKKEEENADSDDEGELQDLLSQDWRVKGALL [ZNF830]”, the values for the melting temperature in series [1] (cell cycle stage: G1/S) and in series [1] (cell cycle stage: mitosis) were 56.2 °C and 54.4 °C, respectively. Moreover, the “solubility change mitosis (log2)” value in series [2] is 0.0142. For the same sequence, the “solubility in G1/S (log2)” value in series [3] was 0.423.
Taken in the same sequence, the figures for “MASSFLPAGAITGDSGGELSSGDDSGEVEFPHSPEIEETSCLAELFEKAAAHLQGLIQVASREQLLYLYARYKQVKVGNCNTPKPSFFDFEGKQKWEAWKALGDSSPSQAMQEYIAVVKKLDPGWNPQIPEKKGKEANTGFGGPVISSLYHEETIREEDKNIFDYCRENNIDHITKAIKSKNVDVNVKDEEGRALLHWACDRGHKELVTVLLQHRADINCQDNEGQTALHYASACEFLDIVELLLQSGADPTLRDQDGCLPEEVTGCKTVSLVLQRHTTGKA [ACBD6]” were 48 °C, 49.2 °C, 0.0566 and 0.393.
For “MASSLNEDPEGSRITYVKGDLFACPKTDSLAHCISEDCRMGAGIAVLFKKKFGGVQELLNQQKKSGEVAVLKRDGRYIYYLITKKRASHKPTYENLQKSLEAMKSHCLKNGVTDLSMPRIGCGLDRLQWENVSAMIEEVFEATDIKITVYTL [OARD1]”, the melting temperature in series [1] (cell cycle stage: mitosis) came out at 50.5 °C. Further, the “solubility change mitosis (log2)” value in series [2] worked out at 0.139. Also, the “solubility in G1/S (log2)” value in series [3] amounted to 0.299.

(Values after the supplement of paper PMC5998384.)
